The text below walks through data of US20250115681A1 (WESTLAKE UNIVERSITY, published 2025).

Where no end group is shown, it is not given here. [ ]: non-standard residue; d: D form. The star is where a group is joined. Biotin = O=C1N[C@H]2[C@H](CS[C@H]2CCCCC(=O)*)N1

In this assay the target is T1, AALPET*G peptide with N-terminal biotinylation.
T1 construct: Synthetic sortase substrate peptide
T1 peptide: Biotin-AALPET[2‑hydroxyacetic acid]G
In words: western blot of in vitro reaction product bands.

B1: mgSrtA (Ca2+-dependent) (enzyme)
chain: KPHIDNYLHDKDKDEKIEQYDKNVKEQASKDKKQQAKPQIPKDKSKVAGYIEIPDADIKEPVYPGPATREQLNRGVSFAEENESLDDQNISIAGHTFIGRPNYQFTNLKAAKKGSMVYFKVGNETRKYKMTSIRNVKPTAVGVLDEQKGKDKQLTLITCDDLNRETGVWETRKILVATEVK
notes: Engineered variant of wild-type sortase A, expressed in E. coli BL21 (DE3) with an N-terminal 6xHis tag; also called Ca^2+-dependent mgSrtA; not shown: N-terminal 6xHis tag from the pET-28a backbone
On to B1, for which the binding result is listed as “binds”.
